Patent US20250034536, “POLYNUCLEOTIDES ENCODING ENGINEERED MEGANUCLEASES HAVING SPECIFICITY FOR RECOGNITION SEQUENCES IN THE DYSTROPHIN GENE” (Precision BioSciences, Inc., published 2025)
Residue numbers refer to the chain shown, from its start.

B1: DMD 37-38 recognition sequence (dsDNA)
DNA 1: CTGGCCGAAGTATAGGAATATG
DNA 2: CATATTCCTATACTTCGGCCAG
B2: DMD 35-36 recognition sequence (dsDNA)
DNA 1: CTACATGGTGTATCTGACTAAG
DNA 2: CTTAGTCAGATACACCATGTAG

What was measured:
Test in all cases: cell_activity; MRC5 cells, 2 ng mRNA; also active in CHO GFP reporter
Details in all cases: tags: N-terminal SV40 NLS
DMD 37-38x.66 = target: T1, DMD 37-38x.66 (synthetic construct)
T1 chain: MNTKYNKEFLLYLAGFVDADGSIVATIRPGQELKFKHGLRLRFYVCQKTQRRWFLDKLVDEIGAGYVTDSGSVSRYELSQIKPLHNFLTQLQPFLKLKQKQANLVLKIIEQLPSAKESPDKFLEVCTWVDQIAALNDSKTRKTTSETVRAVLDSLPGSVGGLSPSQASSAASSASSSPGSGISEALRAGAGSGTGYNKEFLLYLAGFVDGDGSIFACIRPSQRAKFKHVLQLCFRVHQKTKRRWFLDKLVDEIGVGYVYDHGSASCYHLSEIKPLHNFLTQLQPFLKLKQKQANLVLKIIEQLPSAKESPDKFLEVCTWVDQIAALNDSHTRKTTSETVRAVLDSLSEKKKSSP
Method: (§1) In these experiments, 1e6 MRC5 cells were electroporated with 2 ng or 100 ng mRNA encoding DMD meganucleases (DMD 19-20x.13, DMD 19-20x.87, DMD 29-30x.18, DMD 29-30x.40, DMD 35-36x.63, DMD 35-36x.81, DMD 37-38x.15, DMD 37-38x.66, or DMD 37-38x.79), or GFP using the Lonza Amaxa 4D system. Cells were collected at two days post electroporation for gDNA preparation and evaluated for transfection efficiency using a Beckman Coulter CytoFlex S cytometer. Transfection efficiency exceeded 90%. Additional time points were collected at five- and eight-days post electroporation for gDNA extractions. gDNA was prepared using the Macherey Nagel NucleoSpin Blood QuickPure kit.

DMD 37-38x.15 = target: T2, DMD 37-38x.15 (synthetic construct)
T2 chain: T1 chain with A19S, A64V, K239L, H261C, C266F, E271Q, H330K
Method: as §1

DMD 37-38x.79 = target: T3, DMD 37-38x.79 (synthetic construct)
T3 chain: T1 chain with A64V, K239S, K241R, V255A, C266L, H268S, E271Q
Method: as §1

DMD 35-36x.63 = target: T4, DMD 35-36x.63 (synthetic construct)
T4 chain: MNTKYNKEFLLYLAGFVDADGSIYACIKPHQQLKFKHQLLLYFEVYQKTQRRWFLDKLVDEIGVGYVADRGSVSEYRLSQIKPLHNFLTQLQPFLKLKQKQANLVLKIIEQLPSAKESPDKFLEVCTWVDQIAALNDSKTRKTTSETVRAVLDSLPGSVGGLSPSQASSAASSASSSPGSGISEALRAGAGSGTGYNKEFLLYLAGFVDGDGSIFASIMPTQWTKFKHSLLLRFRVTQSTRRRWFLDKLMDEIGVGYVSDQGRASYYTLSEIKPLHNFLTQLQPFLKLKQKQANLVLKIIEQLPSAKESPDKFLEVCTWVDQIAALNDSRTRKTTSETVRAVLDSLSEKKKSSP
Method: as §1

DMD 35-36x.81 = target: T5, DMD 35-36x.81 (synthetic construct)
T5 chain: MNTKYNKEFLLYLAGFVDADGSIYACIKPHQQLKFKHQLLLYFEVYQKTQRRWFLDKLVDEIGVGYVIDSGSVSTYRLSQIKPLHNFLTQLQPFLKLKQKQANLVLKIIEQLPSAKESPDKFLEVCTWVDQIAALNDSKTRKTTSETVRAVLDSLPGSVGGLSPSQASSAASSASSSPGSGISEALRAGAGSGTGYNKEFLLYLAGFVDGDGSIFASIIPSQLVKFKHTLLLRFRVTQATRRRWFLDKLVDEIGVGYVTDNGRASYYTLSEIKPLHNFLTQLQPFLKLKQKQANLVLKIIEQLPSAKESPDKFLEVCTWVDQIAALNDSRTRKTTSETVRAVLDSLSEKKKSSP
Method: as §1

Row | Binder | activity (DMD 37-38x.66) | activity (DMD 37-38x.15) | activity (DMD 37-38x.79) | activity (DMD 35-36x.63) | activity (DMD 35-36x.81)
1 | B1 | > 30 % indel | > 30 % indel | > 30 % indel |  | 
2 | B2 |  |  |  | > 30 % indel | > 30 % indel
